One substance from publication PMC7171172 can be followed below.

This assay has as its target Rhodobacter capsulatus formate dehydrogenase subunit FdsA (Rhodobacter capsulatus). Put plainly: cryo-EM structure; single particle analysis of the co-expressed, co-purified RcFDH complex (100 µg/ml), as isolated with 10 mM azide and after 5 min with 2 mM NADH; C2 symmetry imposed; 3.3 Å and 3.2 Å.

What is called stoichiometry N is a count of units in the complex or per binding partner. In the case of “Rhodobacter capsulatus formate dehydrogenase subunit FdsA (natural protein)”, the stoichiometry N was found to be 2.
